According to US20030044888, “NOVEL STEROID-ACTIVATED NUCLEAR RECEPTORS AND USES THEREFOR” (published 2003):

Target: SXR/RXR heterodimer (Homo sapiens, UniProt O75469;P19793 O75469:1-434,P19793:1-462)
Assay: EMSA; mutations prevented heterodimer binding; 10 mM Tris pH 8, 100 mM KCl, poly dI:dC, room temp
Settings: tags: TNT (Promega); SXR initiator Leu changed to Met
Procedure: Electrophoretic mobility shift assays were performed using in vitro transcribed, translated proteins (TNT, Promega ). Proteins (1 μl each) were incubated for 20 minutes at room temperature with 100,000 cpm of Klenow-labeled probes in 10 mM Tris pH 8, 100 mM KCl, 6% glycerol, 0.05% NP-40, 1 mM dithiothreitol (DTT), 100 ng/μl poly dI:dC (Pharmacia, Piscataway, N.J.) and then electrophoresed through a 5% polyacrylamide gel in 0.5× TBE (45 mM Tris-base, 45 mM boric acid, 1 mM ethylenediaminetetraacetic acid (EDTA) at room temperature. For competition binding, protein plus unlabeled oligonucleotides at five or fifty fold molar excess were preincubated for ten minutes on ice, then labeled probes were added and incubated for 20 minutes at room temperature. Electrophoresis was as above. The IR series oligonucleotides tested had the following sequences: […]

Chain of SXR/RXR heterodimer (O75469 whole entry, chain 1 of 2): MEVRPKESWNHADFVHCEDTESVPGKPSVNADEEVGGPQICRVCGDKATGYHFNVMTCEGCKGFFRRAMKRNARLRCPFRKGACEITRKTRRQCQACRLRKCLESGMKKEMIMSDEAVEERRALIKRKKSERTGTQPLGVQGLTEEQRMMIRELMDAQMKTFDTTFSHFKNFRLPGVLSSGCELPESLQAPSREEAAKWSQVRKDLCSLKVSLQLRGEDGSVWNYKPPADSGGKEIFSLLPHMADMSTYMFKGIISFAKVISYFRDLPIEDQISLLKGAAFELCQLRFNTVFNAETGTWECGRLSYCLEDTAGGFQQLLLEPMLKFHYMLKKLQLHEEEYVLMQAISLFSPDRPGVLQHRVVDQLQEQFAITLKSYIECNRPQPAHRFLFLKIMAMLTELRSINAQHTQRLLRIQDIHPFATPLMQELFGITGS
Chain of SXR/RXR heterodimer (P19793 whole entry, chain 2 of 2): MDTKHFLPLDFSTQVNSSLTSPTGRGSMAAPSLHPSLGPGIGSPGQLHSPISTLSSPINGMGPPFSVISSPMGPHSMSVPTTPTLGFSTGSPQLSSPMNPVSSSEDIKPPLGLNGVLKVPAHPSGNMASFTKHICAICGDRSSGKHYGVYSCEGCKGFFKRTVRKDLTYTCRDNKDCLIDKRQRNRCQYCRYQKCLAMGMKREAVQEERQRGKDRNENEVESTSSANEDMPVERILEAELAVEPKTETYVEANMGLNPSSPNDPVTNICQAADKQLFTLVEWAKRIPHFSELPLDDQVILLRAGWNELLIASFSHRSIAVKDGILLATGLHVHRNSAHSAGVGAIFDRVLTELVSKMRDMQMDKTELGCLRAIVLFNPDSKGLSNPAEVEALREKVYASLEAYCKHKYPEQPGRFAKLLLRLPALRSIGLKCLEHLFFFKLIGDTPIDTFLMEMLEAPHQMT

B1: IR-M (dsDNA)
DNA 1: AGCTTACGTCATGACGTA
DNA 2: TACGTCATGACGTAAGCT
binding result: no binding
